Data set [1] concerns the target T1, PPR10 TN variant (maize, UniProt B8Y6I0 96-786, N284T;D314N;N319T).
T1 sequence: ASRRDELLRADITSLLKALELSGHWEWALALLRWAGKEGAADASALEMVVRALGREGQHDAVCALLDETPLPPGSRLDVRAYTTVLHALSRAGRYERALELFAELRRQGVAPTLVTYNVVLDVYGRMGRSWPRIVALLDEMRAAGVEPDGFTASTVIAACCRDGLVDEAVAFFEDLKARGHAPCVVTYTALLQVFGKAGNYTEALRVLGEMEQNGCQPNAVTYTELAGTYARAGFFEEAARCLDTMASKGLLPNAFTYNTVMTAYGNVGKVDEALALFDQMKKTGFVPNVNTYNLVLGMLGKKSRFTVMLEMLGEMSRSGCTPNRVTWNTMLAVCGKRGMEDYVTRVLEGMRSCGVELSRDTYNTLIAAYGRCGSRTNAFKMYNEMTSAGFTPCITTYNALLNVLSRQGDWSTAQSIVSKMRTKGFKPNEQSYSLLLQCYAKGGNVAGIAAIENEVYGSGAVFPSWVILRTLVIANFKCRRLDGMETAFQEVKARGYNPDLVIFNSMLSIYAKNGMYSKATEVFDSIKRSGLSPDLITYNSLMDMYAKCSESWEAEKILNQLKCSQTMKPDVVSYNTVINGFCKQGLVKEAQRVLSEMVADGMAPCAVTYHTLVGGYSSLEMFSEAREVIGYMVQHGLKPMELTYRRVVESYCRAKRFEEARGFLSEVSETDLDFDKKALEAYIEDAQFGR
Description: EMSA; EMSA: radiolabeled RNA 15 pM, protein 0, 5, 10, 20 nM; binding buffer and temperature by reference [12]; protein stock in 400 mM NaCl, 50 mM Tris-HCl pH 7.5, 5. The following applies: protein: recombinant; tags: MBP fusion removed by TEV cleavage; label: radiolabeled; single-stranded. In general terms: A gel shift assay detects complexes by their altered migration in electrophoresis.

Data set [2] deals with T2, PPR10 TD variant (maize, UniProt B8Y6I0 96-786, N284T;N319T;N349D).
T2 sequence: T1 sequence with N219D, N254D
The description is as above. The following applies: protein: recombinant; tags: MBP fusion removed by TEV cleavage; label: radiolabeled; single-stranded.

Data set [3] deals with the molecule itself. As to the kind of experiment: AUC; sedimentation velocity; rPPR10 alone at 3, 6 and 12 µM; 20°C, 50,000 rpm, interference optics; 250 mM NaCl, 50 mM Tris-HCl pH 7.5, 5 mM ß-mercaptoethanol; monomer to dimer.
A further data set concerns the target T3, rPPR10 wild-type (maize, UniProt B8Y6I0 96-786).
T3 sequence: T1 sequence with T189N, N219D, T224N
Description: EMSA; EMSA: radiolabeled RNA 15 pM, protein 0, 5, 10, 20 nM; binding buffer and temperature by reference [12]; protein stock in 400 mM NaCl, 50 mM Tris-HCl pH 7.5, 5. The following applies: protein: recombinant; tags: MBP fusion removed by TEV cleavage; label: radiolabeled; single-stranded.

The target in data set [4] is T1, PPR10 TN variant. As to the kind of experiment: EMSA; high affinity; EMSA: radiolabeled RNA 15 pM, protein 0, 5, 10, 20 nM; binding buffer and temperature by reference [12]; protein stock in 400 mM NaCl, 50 mM Tris-HCl pH 7.5, 5. The following applies: protein: recombinant; tags: MBP fusion removed by TEV cleavage; label: radiolabeled; single-stranded.
Data set [5] has as its target T2, PPR10 TD variant. The data set is described as above. The note with it: protein: recombinant; tags: MBP fusion removed by TEV cleavage; label: radiolabeled; single-stranded.

From PMC3420917, “A Combinatorial Amino Acid Code for RNA Recognition by Pentatricopeptide Repeat Proteins” (PLoS Genetics, 2012) come the findings set out here.

Numbering of substitutions follows the chain as printed.

B1: wild-type RNA (EMSA) (ssRNA)
RNA: GUAUCCUUAACCAUUUC
With B1, the binding result with PPR10 TN variant [1] and with PPR10 TD variant [2] was “no binding” in each case.

B2: Recombinant PPR10 (natural protein, maize, UniProt B8Y6I0 96-786, looked up)
chain: T1 sequence with T189N, N219D, T224N
notes: PPR10, maize chloroplast pentatricopeptide repeat protein (19 PPR motifs); mature PPR10 lacking the plastid targeting peptide; monomeric molecular weight of rPPR10 printed as 82.6 kDa; also called rPPR10
In general, stoichiometry N refers to a count of units in the complex or per binding partner. With B2, the “stoichiometry N” value in data set [3] came to 2.

B3: AA RNA (ssRNA)
RNA: GUAAACUUAACCAUUUC
On to B3, for which the binding result in the data set with rPPR10 wild-type is given as “no binding”; with PPR10 TN variant [4], “binds”.

B4: GG RNA (ssRNA)
RNA: GUAGGCUUAACCAUUUC
Take B4: the binding result with rPPR10 wild-type was “no binding”; in the data set with PPR10 TD variant [5], “binds”.
